Results from publication PMC7156724, “Potent BRD4 inhibitor suppresses cancer cell-macrophage interaction” (Nature Communications, 2020).
Values joined by “and” are separate entries in the source; they are usually repeats but may differ in a detail not shown here. Equal entries are not always repeated.

What was measured:
in vitro [1] = conditions: human
Method: (§1) The concentration was calculated using the peak area ratio of analyte and internal […]
(§2) The results were calculated by the following equations:
(§3) % Unbound = 100 *FC / TC, % Bound = 100 * (1-FC / TC)
(§4) % Recovery = 100 * (FC + TC) / T0
(§5) TC = Total compound concentration as determined by the calculated concentration on the retentate side of the membrane
(§6) FC = Free compound concentration as determined by the calculated concentration on the dialysate side of the membrane […]
(§7) Equation of first order kinetics: […]
(§8) 8. Equilibrium dialysis assay. Binding with plasma protein and recovery rate of NHWD-870 were performed with human, CD-1 mouse and SD rat plasma as […]
(§9) described 2. […] The concentration was […]
(§10) calculated using the peak area ratio of analyte and internal standard. The results were calculated by the following equations: % Unbound = 100 *FC / TC, % Bound = 100 * (1-FC / TC); % Recovery = 100 * (FC + TC) / T0; TC = Total compound concentration as determined by the calculated concentration on the retentate side of the membrane; FC = Free compound concentration as determined by the (1 picture or pasted object on this page, not shown here) […]
(§11) calculated concentration on the dialysate side of the membrane; T0 = To t a l compound concentration as determined before dialysis. […]
(§12) 10. hERG channel assay. […]
(§13) HEK293 cell line stably

in vitro [2] = conditions: CD-1, mouse
Method: as §1, §2, §3, §4, §5, §6, §7, §8, §9, §10, §11, §12, §13

in vitro [3] = conditions: SD, rat
Method: as §1, §2, §3, §4, §5, §6, §7, §8, §9, §10, §11, §12, §13

TAMs [4] = assay: Number of TAMs after treatment with CSF1; type: cell-based, mouse
Method: Fig. 6 CSF1/CSF1R signaling is critical for the tumor inhibitory effects of NHWD-870 and CSF1 induced ovarian cancer growth depends on macrophages. a Number of TAMs after treatment with the indicated concentration of CSF1 for 48 h. Data are presented as mean ± SEM from three independent experiments. b–d Schematics of the experiments (b). A2780 cells (pre-treated with DMSO or 100 nM NHWD-870 for 48 h) were seeded into the top chamber (transwell size: 0.4 μm), and TAMs (Mac, 40,000 cells per 24-well) in medium with PBS or 10 ng/ml CSF1 (c), or 50 ng/ml IgG or anti-CSF1R antibodies (d), were seeded into the bottom chamber. Shown are quantification of TAMs (c, d). Data are presented as mean ± SEM from three independent experiments. e Representative western blot analysis of A2780 cells stably transfected with CSF1 or empty vector (EV). Selected from three independent experiments. f Schematics of the animal experiments using an orthotopic mouse OC model, established by intraperitoneally injecting 1 × 10^6 (g–j) or 2 × 10^6 (k–m) human A2780 cells overexpressing CSF1 or control into female recipient nude mice. Mice were then treated with/without liposomal clodronate (LC) for 45 days (g–j) or treated with/without NHWD-870 (PO, QD, 3 mg/kg) for 37 days (k–m). g Increased mouse body weight was measured at the indicated time points (day 0-45 after LC treatment). h–j Net tumor weight (h), ascitic fluid volumes (i) tumor implantations in peritoneum, omentum and pevic cavity (j) were measured at day 45 from LC treatment. k–m Net tumor weight (k), ascitic fluid volumes (l) tumor implantations in peritoneum, omentum and pevic cavity (m) were measured at day 37 after NHWD-870 treatment. For g–m, data are presented as mean ± SEM from five different mice. p values were calculated using two-tailed, unpaired t tests in this figure. n.s, not significant; *p < 0.05; **p < 0.01; and ***p < 0.001. Source data are provided as a Source Data file. […]

TAMs [5] = assay: Transwell co-culture of pretreated A2780 cells and TAMs with CSF1 or anti-CSF1R antibodies; type: cell-based, mouse; conditions: 10 ng/ml CSF1
Method: Fig. 6 CSF1/CSF1R signaling is critical for the tumor inhibitory effects of NHWD-870 and CSF1 induced ovarian cancer growth depends on macrophages. a Number of TAMs after treatment with the indicated concentration of CSF1 for 48 h. Data are presented as mean ± SEM from three independent experiments. b–d Schematics of the experiments (b). A2780 cells (pre-treated with DMSO or 100 nM NHWD-870 for 48 h) were seeded into the top chamber (transwell size: 0.4 μm), and TAMs (Mac, 40,000 cells per 24-well) in medium with PBS or 10 ng/ml CSF1 (c), or 50 ng/ml IgG or anti-CSF1R antibodies (d), were seeded into the bottom chamber. Shown are quantification of TAMs (c, d). Data are presented as mean ± SEM from three independent experiments. e Representative western blot analysis of A2780 cells stably transfected with CSF1 or empty vector (EV). Selected from three independent experiments. f Schematics of the animal experiments using an orthotopic mouse OC model, established by intraperitoneally injecting 1 × 10^6 (g–j) or 2 × 10^6 (k–m) human A2780 cells overexpressing CSF1 or control into female recipient nude mice. Mice were then treated with/without liposomal clodronate (LC) for 45 days (g–j) or treated with/without NHWD-870 (PO, QD, 3 mg/kg) for 37 days (k–m). g Increased mouse body weight was measured at the indicated time points (day 0-45 after LC treatment). h–j Net tumor weight (h), ascitic fluid volumes (i) tumor implantations in peritoneum, omentum and pevic cavity (j) were measured at day 45 from LC treatment. k–m Net tumor weight (k), ascitic fluid volumes (l) tumor implantations in peritoneum, omentum and pevic cavity (m) were measured at day 37 after NHWD-870 treatment. For g–m, data are presented as mean ± SEM from five different mice. p values were calculated using two-tailed, unpaired t tests in this figure. n.s, not significant; *p < 0.05; **p < 0.01; and ***p < 0.001. Source data are provided as a Source Data file.
CD45^+CD11b^+F4/80^+ TAMs were isolated from peritoneal metastasis of A2780 tumor-bearing mice and cultured in RPMI-1640 supplemented with 10% FBS, 1% penicillin/streptomycin, and 0–50 ng/ml CSF1 (R&D Systems) as indicated according to standard protocols. In the cancer cell-macrophage co-culture experiments, CSF1 was not added. In the transwell (Corning, pore size, 0.4 μm) co-culture experiments, tumor cells were placed into the upper chamber, and TAMs were seeded into the lower chamber.

[6] = test system: PI3K/AKT1 and ERK phosphorylation; assay: Western blot of p-PI3K, p-AKT1 and p-ERK in TAMs; type: cell-based, mouse
Method: Supplementary Figure 13. NHWD-870 inhibited CSF1/CSF1R signaling pathw ay to reduce TAM […]
TA M s ( 2 ×10^5 cells) (treated with or without 10 ng/ml CSF1 and 100 nM NHWD-870 for 48 h) were seeded into the 6-well bottom chamber, in the presence or absence of A2780 cells (pre-treated with or without 100 nM NHWD-870 for 48 h) seeded into the top chamber (transwell size: 0.4μm). Shown are schematics of the experiment and representative western blot analysis of the indicated proteins (a), and quantification of the relative levels of p-PI3K, p-AKT1 and p-ERK over their respective total protein (b). Data are presented as mean ± SEM from 3 independent experiments. p values were calculated using two-tailed, unpaired t tests. n.s, no significant; **, p<0.01; ***, p<0.001. Source data are provided as a Source Data file. […]
4. Protein extraction and w estern blot anal ysis. Freshly dissected unfixed tissue was homogenized in lysis buffer. The lysates were centrifuged at 13,000g for 10 minutes at 4°C. Supernatants were collected and determined with a Bradford Protein Assay kit (Bio-Rad, Hercules, CA). The cell lysates were subjected to SDS-PAGE followed by immunoblotting (Immobilon P; Millipore, Milford, MA) with specific antibodies followed by detection using an enhanced chemilumine scence kit (Amersham Life Science, Arlington Heights, IL). […]

TAMs [7] = assay: Ki67 FACS of TAMs induced by CSF1; type: cell-based, mouse; conditions: CSF1 treatment
Method: Flow cytometry analyses were performed using antibodies listed in Supplementary Table 8. For cell surface markers, mouse TAM suspensions were stained with mouse APC-CD45, FITC-CD11b, PE-F4/80 or APC-F4/80, CD68, and PE-CD206 antibodies for 15 min on ice. For Ki67 staining, cells were fixed in 4% paraformaldehyde and stained with FITC-Ki67. Isotype matching antibody served as the negative control. Flow cytometry was performed on a FACSCalibur (BD Biosciences). Data were analyzed with BD CellQuest Pro software version 5.1.
Supplementary Figure 14. NHWD-870 and BRD4 deletion partially inhibite d prolifera tion of TAMs […]
(a) CD45+CD11b+F4/80 + TAMs in the orthotopic B16 melanoma model were harvested from tumors. Shown are representative FACS plots of TAMs. (b,c) Representative FACS plots (b) and quantification (c) of Ki67+ macrophages treated with 50 ng/ml CSF1, and DMSO or 25 or 50 nM NHWD-870. […]
TAMs induced by CSF1. (a-c) CD11b+F4/80+ macrophages in the orthotopic B16F10 melanoma model were harvested from tumor tissues. Shown are representative CD45+, CD11b+, F4/80+ FACS plots (a) and quantification of the percentage of Ki67+ cells after treatment with DMSO or NHWD-870 dependent on CSF1 stimulation (b,c). (d-g) FACS plots and quantification of the percentage of Ki67+ cells after CRISPR/Cas9-mediated BRD4 knockout (d,e) and c-MYC knockout (f,g) in CD11b+F4/80+ macrophages. CSF1 is added at the indicated concentration.
Please also see response to comment # 4 about our 2D assays, in which we used colony number to quantify the number of TAMs.
NHWD-870 treatment and the main differences are colony size.
6. For comparison purposes, it would be a good idea to compare the direct effect of NHWD-870 on in […]
marrow derived macrophage proliferation and gene expression in vitro). […]

[8] = CSF1 treatment, individual replicates, Ctrl about 1

Molecule	recovery (in vitro [1]) [%]	recovery (in vitro [2]) [%]	recovery (in vitro [3]) [%]	proliferation of TAMs (TAMs [4]; 48 h)	Number of TAMs (Fig.6a) (TAMs [4]; CSF1 10)	Number of TAMs (Fig.6a) (TAMs [4]; CSF1 50)	rescue of TAM proliferation in co-culture with NHWD-870 pretreated A2780 cells (TAMs [5])	PI3K/AKT1 and ERK phosphorylation in TAMs ([6]; 10 ng/ml CSF1)	p-AKT1 (Sup Fig.13b quantification) [6, 8]	p-ERK (Sup Fig.13b quantification) [6, 8]	p-PI3K (Sup Fig.13b quantification) [6, 8]	fold induction of TAM proliferation (TAMs [7]) [fold]
CC(=O)CC(c1ccccc1)c1c(O)c2ccccc2oc1=O (stereo not drawn) [Warfarin, reference compound]	90.2	99.2	86.8	–	–	–	–	–	–	–	–	–
CSF1: macrophage colony-stimulating factor, purchased from R&D Systems (protein, UniProt P09603 33-554, looked up) Macrophage colony-stimulating …: EEVSEYCSHMIGSGHLQSLQRLIDSQMETSCQITFEFVDQEQLKDPVCYLKKAFLLVQDIMEDTMRFRDNTPNAIAIVQLQELSLRLKSCFTKDYEEHDKACVRTFYETPLQLLEKVKNVFNETKNLLDKDWNIFSKNCNNSFAECSSQDVVTKPDCNCLYPKAIPSSDPASVSPHQPLAPSMAPVAGLTWEDSEGTEGSSLLPGEQPLHTVDPGSAKQRPPRSTCQSFEPPETPVVKDSTIGGSPQPRPSVGAFNPGMEDILDSAMGTNWVPEEASGEASEIPVPQGTELSPSRPGGGSMQTEPARPSNFLSASSPLPASAKGQQPADVTGTALPRVGPVRPTGQDWNHTPQKTDHPSALLRDPPEPGSPRISSLRPQGLSNPSTLSAQPQLSRSHSSGSVLPLGELEGRRSTRDRRSPAEPEGGPASEGAARPLPRFNSVPLTDTGHERQSEGSFSPQLQESVFHLLVPSVILVLLAVGGLLFYRWRRRSHQEPQRADSPLEQPEGSPLTQDDRQVELPV	–	–	–	increased proliferation of TAMs in a dose-dependent manner	15.5 and 19.7 and 20.1	45.6 and 59.6 and 67.2	partially rescue the inhibitory effects of NHWD-870	induced PI3K/AKT1 and ERK phosphorylation	7.5 and 6.3 and 5.51	3.68 and 4.51 and 5.3	3.62 and 4.72 and 3.2	> 10
